Assay results reported in paper PMC5743471 (Theranostics, 2018).

Target: mouse serum albumin (mouse, UniProt P07724 25-608)
Assay: SPR

Kd [nM] | koff [s⁻¹] | kon [M⁻¹ s⁻¹] | Binder
1.4 ± 0.1 |  |  | ABD-iTEP-pOVA (designed binder) LAEAKVLANRELDKYGVSDFYKRLINKAKTVEGVEALKLHILAALPGVGVPGGVGVPGGVGVPGGVGVPGGVGVPGGVGVPGGVGVPGGVGVPGGVGVPGGVGVPGGVGVPGGVGVPGGVGVPGGVGVPGGVGVPGGVGVPGGVGVPGGVGVPGGVGVPGGVGVPGGVGVPGGVGVPGGVGVPGGVGVPGGVGVPGGVGVPGGVGVPGGVGVPGGVGVPGGVGVPGGVGVPGGVGVPGGVGVPGGVGVPGGVGVPGGVLPGVGGVLPGVGGVLPGVGGVLPGVGGVLPGVGGVLPGVGGVLPGVGGVLPGVGGVLPGVGGVLPGVGGVLPGVGGVLPGVGGVLPGVGGVLPGVGGVLPGVGGVLPGVGGSIINFEKL
1.41 ± 0.04 | 0.00305 | 2.17e+06 | ABD-iTEP (designed binder) LAEAKVLANRELDKYGVSDFYKRLINKAKTVEGVEALKLHILAALPGVGVPGGVGVPGGVGVPGGVGVPGGVGVPGGVGVPGGVGVPGGVGVPGGVGVPGGVGVPGGVGVPGGVGVPGGVGVPGGVGVPGGVGVPGGVGVPGGVGVPGGVGVPGGVGVPGGVGVPGGVGVPGGVGVPGGVGVPGGVGVPGGVGVPGGVGVPGGVGVPGGVGVPGGVGVPGGVGVPGGVGVPGGVGVPGGVGVPGGVGVPGGVGVPGGVLPGVGGVLPGVGGVLPGVGGVLPGVGGVLPGVGGVLPGVGGVLPGVGGVLPGVGGVLPGVGGVLPGVGGVLPGVGGVLPGVGGVLPGVGGVLPGVGGVLPGVGGVLPGVG
